The values that follow come from paper PMC11995805 (BBA Advances, 2025).

In this assay the target is T1, Recombinant FLAG-tagged shroom-2 PDZ domain (1st-110th amino acid) (human, UniProt Q13796 1-110).
T1 sequence (looked up): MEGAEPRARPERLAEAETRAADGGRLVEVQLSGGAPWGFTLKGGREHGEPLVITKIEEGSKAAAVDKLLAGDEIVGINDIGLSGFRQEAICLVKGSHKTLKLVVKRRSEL
Description: co-IP.

B1: His-tagged peptide of the carboxy terminus of claudin-11, NH2-…-COOH (peptide)
peptide: {H2N-Met-H2N-H2N-H2N-H2N-H2N-H2N}-PTHAKSAHV-OH
SMILES: CSCC[C@H](N)C(=O)N1CCC[C@H]1C(=O)N[C@H](C(=O)N[C@@H](Cc1c[nH]cn1)C(=O)N[C@@H](C)C(=O)N[C@@H](CCCCN)C(=O)N[C@@H](CO)C(=O)N[C@@H](C)C(=O)N[C@@H](Cc1c[nH]cn1)C(=O)N[C@H](C(=O)O)C(C)C)[C@@H](C)O
The Kd is the concentration at which binding is half-saturated. With B1, the Kd is 3.36 µM.
